From US12649783B2, “Anti-MCT1 antibodies and uses thereof” (IMMUNEXT INC., priority 2018, dated 2026)

Target: T1, MCT1 (Homo sapiens, UniProt P53985)
T1 construct: HEK-293 WT cells only express MCT1/CD147 and no other MCTs as measured by RT-PCR; endogenous in cells; host or cells: HEK293T
T1 sequence (P53985 1-500): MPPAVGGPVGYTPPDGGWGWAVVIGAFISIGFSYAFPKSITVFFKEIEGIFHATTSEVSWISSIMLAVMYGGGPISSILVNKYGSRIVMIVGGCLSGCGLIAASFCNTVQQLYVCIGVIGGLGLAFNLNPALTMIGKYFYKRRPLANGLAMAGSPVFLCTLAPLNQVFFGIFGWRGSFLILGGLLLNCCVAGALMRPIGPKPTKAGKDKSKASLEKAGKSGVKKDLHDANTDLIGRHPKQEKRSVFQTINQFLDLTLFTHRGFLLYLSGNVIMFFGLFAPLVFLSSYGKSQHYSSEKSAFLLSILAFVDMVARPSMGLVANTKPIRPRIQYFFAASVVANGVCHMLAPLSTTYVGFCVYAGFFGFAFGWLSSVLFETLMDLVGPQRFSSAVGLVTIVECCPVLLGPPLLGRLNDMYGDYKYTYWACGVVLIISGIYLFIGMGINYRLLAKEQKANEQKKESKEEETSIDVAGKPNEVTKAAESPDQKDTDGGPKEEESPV
Assay: bromopyruvate toxicity assay (ATPlite)
Format: cell-based
Description: Inhibition of bromopyruvate toxicity. Since MCT1 is the sole transporter necessary for the in vitro efficacy of the anti-cancer toxin bromopyruvate (Reference 66), a second cell-based functional assay was developed to measure the in vitro killing of cells using this toxin at a concentration of 150 μM.
HEK293T cells are pre-treated with anti-MCT1 antibody or small molecular MCT1 inhibitor at 37° C. for 1 hour. Cells are then incubated with a cytotoxic reagent 3-bromopyruvate (3-BrPy) at concentrations that rand from 25 to 500 μM for 2 to 6 hours. ATP from dying cells will be quantified using a commercial viability kit (ATPlite, PerkinElmer) in a 96-well plate and viability measured using luminescence. Reduction of ATP production indicates functionality of the antibody. A positive control antibody is the mouse or chimeric antibody before humanization. A negative control cell line is MCT1/CD147 double knockout 293T cells. Using this assay functional, i.e., antagonistic anti-MCT1 antibodies may be identified.

B1: LM186: chicken anti-human MCT1 antibody; HC/LC SEQ ID NO: 184/189 (antibody)
heavy: AVTLDESGGGLQTPGGGLSLVCKASGFSFSSRGMFWVRQAPGKGLEYVAGIDNDGGYPNYGSAVKGRATISRDNRQSTVRLQLNNLRADDTGTYYCAKGAYGGGWYAASSIDAWGHGTEVIVSS
light: ALTQPSSVSANPGEAVKITCSGGVGQWYGWFQQKAPGSAPVTVIHDNTNRPSDIPSRFSGSKSGSTGTLTITGVQAEDEAVYFCANTYSDGNDAPFGAGTTLTVL
modifications: HC Protein; LC Protein
  block of human MCT1 function: block human MCT1 function
